EP4678648A1

Target: FcRn (Neonatal Fc Receptor)
Assay: SPR (BIAcore T200), FcRn amine-coupled on CM5 chip, antibody 1.96-31.25 nM flowed, pH 6.0 or 7.4 not given, 1:1 fit; Table 4 taken as the FcRn table

Substance: Trastuzumab (antibody)
- Kd: 0.572 nM
